# Literature values, collected in paper PMC2990782 (Gene therapy, 2010).
# Details: i.v. dosed polyplex; ref [22]
substance,measurement,value
PEG-Cys-Trp-Lys18,time to complete metabolism of plasmid DNA in the circulation,≤ 3 min
